1 molecule from article PMC8213733, “Subtype-specific collaborative transcription factor networks are promoted by OCT4 in the progression of prostate cancer” (Nature Communications, 2021) can be followed below.

In the experiment the target is T1, Flag-AR (human (cDNA of PC cells, said of the …, UniProt P10275 1-920)).
T1 construct: androgen receptor, full length in Flag-tagged pcDNA3.0; also called androgen receptor; source: 293T, transfected, cells treated with 10 nM DHT or vehicle, purified (Flag M2 agarose beads, glycine elution)
T1 sequence (looked up): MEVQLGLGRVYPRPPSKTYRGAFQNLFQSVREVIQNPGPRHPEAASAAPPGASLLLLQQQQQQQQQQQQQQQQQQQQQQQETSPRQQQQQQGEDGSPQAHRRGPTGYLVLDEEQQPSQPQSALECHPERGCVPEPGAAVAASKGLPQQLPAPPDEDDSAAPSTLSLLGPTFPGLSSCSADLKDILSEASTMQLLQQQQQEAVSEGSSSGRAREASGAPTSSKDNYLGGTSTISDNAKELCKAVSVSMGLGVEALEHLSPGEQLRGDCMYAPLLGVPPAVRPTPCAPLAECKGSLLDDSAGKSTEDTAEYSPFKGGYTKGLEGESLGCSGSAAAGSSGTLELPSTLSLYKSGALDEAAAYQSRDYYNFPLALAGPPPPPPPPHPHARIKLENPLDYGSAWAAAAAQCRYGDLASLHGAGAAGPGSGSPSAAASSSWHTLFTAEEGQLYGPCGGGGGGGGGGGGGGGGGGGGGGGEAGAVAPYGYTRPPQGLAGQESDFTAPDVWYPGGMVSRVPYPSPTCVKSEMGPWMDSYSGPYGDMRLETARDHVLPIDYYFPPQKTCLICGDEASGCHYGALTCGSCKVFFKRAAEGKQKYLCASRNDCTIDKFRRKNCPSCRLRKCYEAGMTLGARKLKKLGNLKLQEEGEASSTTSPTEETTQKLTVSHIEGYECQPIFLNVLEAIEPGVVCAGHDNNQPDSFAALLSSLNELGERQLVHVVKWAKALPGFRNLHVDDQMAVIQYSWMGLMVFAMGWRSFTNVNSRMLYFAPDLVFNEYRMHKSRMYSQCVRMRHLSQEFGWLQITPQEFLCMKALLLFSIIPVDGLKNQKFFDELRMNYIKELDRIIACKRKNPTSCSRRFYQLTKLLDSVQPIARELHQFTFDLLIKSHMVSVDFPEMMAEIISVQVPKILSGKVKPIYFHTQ
Briefly: co-IP; in vitro binding assay: purified proteins in 20 mM Tris-HCl pH 7.5, 150 mM NaCl, 0.1% Triton X-100, 1 mM DTT, 4 °C, 5 h; FOXA1 immunoprecipitated, bound proteins by western blot; with or without ribavirin-phosphate. The note with it: both partners purified.

B1: Flag-FOXA1 (natural protein, UniProt P55317 1-472, looked up)
chain: MLGTVKMEGHETSDWNSYYADTQEAYSSVPVSNMNSGLGSMNSMNTYMTMNTMTTSGNMTPASFNMSYANPGLGAGLSPGAVAGMPGGSAGAMNSMTAAGVTAMGTALSPSGMGAMGAQQAASMNGLGPYAAAMNPCMSPMAYAPSNLGRSRAGGGGDAKTFKRSYPHAKPPYSYISLITMAIQQAPSKMLTLSEIYQWIMDLFPYYRQNQQRWQNSIRHSLSFNDCFVKVARSPDKPGKGSYWTLHPDSGNMFENGCYLRRQKRFKCEKQPGAGGGGGSGSGGSGAKGGPESRKDPSGASNPSADSPLHRGVHGKTGQLEGAPAPGPAASPQTLDHSGATATGGASELKTPASSTAPPISSGPGALASVPASHPAHGLAPHESQLHLKGDPHYSFNHPFSINNLMSSSEQQHKLDFKAYEQALQYSPYGSTLPASLPLGSASVTTRSPIEPSALEPAYYQGVYSRPVLNTS
notes: FOXA1, full length in Flag-tagged pcDNA3.0; source: 293T, transfected, purified (Flag M2 agarose beads, glycine elution)
Regarding B1, the binding result is listed as “binds”.
